# Positions count from the first letter of the chain named.
# B1: SEQ ID NO 109 (Fab, V domains shown)
# VH: EVQLVESGGGLVQPGGSLRLSCRASGSIFSNHWMNWVRQAPGKGLEWIGEIRSKSSNSATHYAESVKGRFIISRDDNKNDLTLEMNSLKTEDTAEYYCARNYYGSTYDYWGQGTLVTVS
# VL: EIVLTQSPDFQSVTPKEKVTITCRASQFVGSSIHWYQQKPDQSPKLLIKYASESMSGVPSRFSGSGSGTDFTFTISSLEAEDAATYYCQQSHSWPFTFGPGTKVDIK
# notes: Fab, E. coli lysate
# B2: SEQ ID NO 110 (Fab, V domains shown)
# VH: B1 VH with R23A, S56I, H61S, N79T, T82Y, R100Q, Y107P
# VL: B1 VL
# notes: Fab, E. coli lysate
# B3: SEQ ID NO 111 (Fab, V domains shown)
# VH: B1 VH with V5T, S27F, W33Y, S56I, K78G, D80S, T82Y, Y107P
# VL: B1 VL
# notes: Fab, E. coli lysate
# B4: SEQ ID NO 112 (Fab, V domains shown)
# VH: B1 VH with S27F, I28T, S56I, N57Y, N79T, T82Y, Y107P
# VL: B1 VL
# notes: Fab, E. coli lysate
# B5: SEQ ID NO 115 (Fab, V domains shown)
# VH: B1 VH with W33Y, S56I, D76G, K78G, N79T, D80S, T82Y, R100Q
# VL: B1 VL
# notes: Fab, E. coli lysate
# B6: SEQ ID NO 117 (Fab, V domains shown)
# VH: B1 VH with V5T, R23A, G26Q, S27F, I28T, D76G, N79T, D80S, Y107P
# VL: B1 VL
# notes: Fab, E. coli lysate
# B7: SEQ ID NO 118 (Fab, V domains shown)
# VH: B1 VH with R23A, G26Q, S27F, I28T, S56I, H61S, D80S, T82Y, Y107P
# VL: B1 VL
# notes: Fab, E. coli lysate
# B8: SEQ ID NO 123 (Fab, V domains shown)
# VH: B1 VH with V5T, G26Q, S27F, I28T, W33Y, N57Y, S58G, H61S, K78G, T82Y
# VL: B1 VL
# notes: Fab, E. coli lysate
# B9: SEQ ID NO 124 (Fab, V domains shown)
# VH: B1 VH with R23A, G26Q, I28T, W33Y, D76G, T82Y, Y107P
# VL: B1 VL
# notes: Fab, E. coli lysate
# B10: SEQ ID NO 126 (Fab, V domains shown)
# VH: B1 VH with I28T, W33Y, S56I, N57Y, D76G, D80S, T82Y, R100Q
# VL: B1 VL
# notes: Fab, E. coli lysate
# B11: SEQ ID NO 127 (Fab, V domains shown)
# VH: B1 VH with V5T, R23A, G26Q, S27F, N57Y, S58G, H61S, K78G, D80S, Y107P
# VL: B1 VL
# notes: Fab, E. coli lysate
# B12: SEQ ID NO 130 (Fab, V domains shown)
# VH: B1 VH with S27F, W33Y, S56I, N57Y, K78G, D80S, T82Y, R100Q
# VL: B1 VL
# notes: Fab, E. coli lysate
# B13: SEQ ID NO 131 (Fab, V domains shown)
# VH: EVQLTESGGGLVQPGGSLRLSCAASQFTFSNHYMNWVRQAPGKGLEWIGEIRSKSSNSATSYAESVKGRFIISRDGNGTSLTLEMNSLKTEDTAEYYCAQNYYGSTYDYWGQGTLVTVS
# VL: B1 VL
# notes: Fab, E. coli lysate
# B14: SEQ ID NO 132 (Fab, V domains shown)
# VH: B1 VH with R23A, G26Q, W33Y, S56I, N57Y, S58G, H61S, D80S, Y107P
# VL: B1 VL
# notes: Fab, E. coli lysate
# B15: SEQ ID NO 134 (Fab, V domains shown)
# VH: B13 VH with Q26G, F27S, T28I, Y33W, S56I, S58G, S61H, T82Y, Q100R, Y107P
# VL: B1 VL
# notes: Fab, E. coli lysate
# B16: SEQ ID NO 135 (Fab, V domains shown)
# VH: B13 VH with T5V, F27S, T28I, Y33W, G78K, S80D, T82Y
# VL: B1 VL
# notes: Fab, E. coli lysate
# B17: SEQ ID NO 136 (Fab, V domains shown)
# VH: B13 VH with F27S, T28I, Y33W, S56I, N57Y, S61H, G76D, T82Y, Y107P
# VL: B1 VL
# notes: Fab, E. coli lysate
# B18: SEQ ID NO 137 (Fab, V domains shown)
# VH: B13 VH with T5V, Q26G, F27S, N57Y, S80D
# VL: B1 VL
# notes: Fab, E. coli lysate
# B19: SEQ ID NO 138 (Fab, V domains shown)
# VH: B1 VH with V5T, S27F, W33Y, H61S, D76G, T82Y, Y107P
# VL: B1 VL
# notes: Fab, E. coli lysate
# B20: SEQ ID NO 140 (Fab, V domains shown)
# VH: B13 VH with Q26G, F27S, S61H, G76D, T82Y, Q100R
# VL: B1 VL
# notes: Fab, E. coli lysate
# B21: SEQ ID NO 141 (Fab, V domains shown)
# VH: B1 VH with R23A, I28T, S56I, N57Y, S58G, H61S, D76G, D80S, T82Y
# VL: B1 VL
# notes: Fab, E. coli lysate
# B22: SEQ ID NO 144 (Fab, V domains shown)
# VH: B1 VH with W33Y, H61S, D76G, T82Y, R100Q
# VL: B1 VL
# notes: Fab, E. coli lysate
# B23: SEQ ID NO 145 (Fab, V domains shown)
# VH: B13 VH with A23R, F27S, S58G, G76D, T79N, S80D, T82Y
# VL: B1 VL
# notes: Fab, E. coli lysate
# B24: SEQ ID NO 146 (Fab, V domains shown)
# VH: B1 VH with R23A, S27F, S56I, S58G, D76G, Y107P
# VL: B1 VL
# notes: Fab, E. coli lysate
# B25: SEQ ID NO 148 (Fab, V domains shown)
# VH: B13 VH with T5V, A23R, T28I, S56I, N57Y, S58G, T79N, S80D, T82Y
# VL: B1 VL
# notes: Fab, E. coli lysate
# B26: SEQ ID NO 149 (Fab, V domains shown)
# VH: B13 VH with A23R, T28I, N57Y, S61H, G76D, T79N, T82Y
# VL: B1 VL
# notes: Fab, E. coli lysate
# B27: SEQ ID NO 150 (Fab, V domains shown)
# VH: B13 VH with T5V, S56I, S58G, G76D, S80D, T82Y, Q100R
# VL: B1 VL
# notes: Fab, E. coli lysate
# B28: SEQ ID NO 151 (Fab, V domains shown)
# VH: B13 VH with T5V, T28I, S56I, N57Y, S58G, S61H, T79N, Q100R, Y107P
# VL: B1 VL
# notes: Fab, E. coli lysate
# B29: SEQ ID NO 155 (Fab, V domains shown)
# VH: B13 VH with F27S, Y33W, N57Y, G76D, G78K, T79N, T82Y, Q100R
# VL: B1 VL
# notes: Fab, E. coli lysate
# B30: SEQ ID NO 156 (Fab, V domains shown)
# VH: B1 VH with V5T, R23A, G26Q, I28T, S56I, H61S
# VL: B1 VL
# notes: Fab, E. coli lysate
# Molecular target: T1, human tumor necrosis factor-α (rHuTNF-alpha, Biosource) (human, UniProt P01375 77-233)
# T1 construct: Bought recombinant protein coated on ELISA plates; The TNFα of the Biacore assay is not described further; also called TNFα; human TNFα
# T1 sequence (P01375 77-233 limits assumed): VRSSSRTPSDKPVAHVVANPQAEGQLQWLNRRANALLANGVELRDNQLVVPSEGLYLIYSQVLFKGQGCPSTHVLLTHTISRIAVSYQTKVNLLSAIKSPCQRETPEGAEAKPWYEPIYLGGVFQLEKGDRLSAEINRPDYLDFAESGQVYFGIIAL
# Experiment: solid-phase ELISA, Fab lysate on coated rHuTNF-alpha
# Method in brief: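 E. coli lysates expressing His-tagged Fab (pTrcHis2A) were incubated 2 h at RT on wells coated with 1 μg/ml rHuTNF-α and blocked with BSA. Bound Fab was detected with biotinylated anti-human kappa plus penta-His conjugates, then streptavidin-POD and TMB. Absorbance was read at 450 nm.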
row,Binder,binding result
1,B1,binds
2,B2,binds
3,B3,binds
4,B4,binds
5,B5,binds
6,B6,binds
7,B7,binds
8,B8,binds
9,B9,binds
10,B10,binds
11,B11,binds
12,B12,binds
13,B13,binds
14,B14,binds
15,B15,binds
16,B16,binds
17,B17,binds
18,B18,binds
19,B19,binds
20,B20,binds
21,B21,binds
22,B22,binds
23,B23,binds
24,B24,binds
25,B25,binds
26,B26,binds
27,B27,binds
28,B28,binds
29,B29,binds
30,B30,binds
